From patent publication US6153391A, “Interruption of binding of MDM2 and P53 protein and therapeutic application thereof” (University of Dundee, priority 1998, dated 2000) come the findings set out here.

The experiment concerns the target T1, mouse MDM2 (Mus musculus, UniProt P23804).
T1 construct: gene PCR-cloned from mouse prostate cell line
As to the kind of experiment: ELISA of MDM2 binding to immobilised biotinylated p53 peptides (peptide library, alanine and conserved substitution series). The following applies: consensus peptide and alanine substitution series, Example 3, FIG. 5.

T1 sequence (P23804 whole entry): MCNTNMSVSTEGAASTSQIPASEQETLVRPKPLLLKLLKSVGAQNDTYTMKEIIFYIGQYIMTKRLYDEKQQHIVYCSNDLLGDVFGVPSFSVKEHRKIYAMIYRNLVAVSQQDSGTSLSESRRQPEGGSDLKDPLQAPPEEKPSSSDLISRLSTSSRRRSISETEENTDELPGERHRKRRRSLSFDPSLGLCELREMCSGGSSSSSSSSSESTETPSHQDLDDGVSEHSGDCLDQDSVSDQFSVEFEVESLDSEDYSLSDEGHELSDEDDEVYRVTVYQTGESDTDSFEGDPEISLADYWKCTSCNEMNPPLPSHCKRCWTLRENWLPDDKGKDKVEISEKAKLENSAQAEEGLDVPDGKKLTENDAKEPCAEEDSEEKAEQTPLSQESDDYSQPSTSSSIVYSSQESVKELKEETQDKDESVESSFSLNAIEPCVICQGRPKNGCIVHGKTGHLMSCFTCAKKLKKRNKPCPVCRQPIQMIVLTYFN
Description: The libraries were in the form of 15 mer peptides linked to biotin via an additional peptide spacer region of serine-glycine-serine-glycine, and each peptide shared a 5 amino acid overlap with the previous peptide in the primary sequence. ELISA plates were coated with 100 μof 5 μg/ml streptavidin (vector labs) per well and incubated overnight at 37° C. and then blocked with phosphate buffered saline (PBS) containing 2% bovine serum albumin (BSA) for 1 hour at room temperature. The stock biotinylated peptides were diluted to 5 μg/ml in PBS containing 0.1 BSA and 50 μl of each were plated into designed wells and then incubated at room temperature for 1 hour. […] In the case of cell extracts bound protein was detected with the appropriate primary antibody at 1-3 μg/ml, and followed by an anti-mouse horse radish peroxidase conjugate and 3'3'4'4'-tetramethyl benzidine (TMB) substrate as in the standard ELISA assay (Harlow, E., et al (1988). Antibodies: a laboratory manual. New York. Cold Spring Harbor Laboratory Press and Lane, 1988).
These libraries consisted of 15 amino acid long sections of the p53 primary amino acid sequence, that consecutively overlapped by 5 amino acids, and were each attached to biotin via a 4 amino acid long spacer. […] The results are presented alongside the ELISA readings for extract of insect cells alone not expressing mouse MDM2. […]

Take QETFSDLWKL: the “level of MDM2 binding as measured by ELISA” value was “higher level of binding of MDM2”.
